Like-named read-outs stand apart in the source and are kept apart here.
T1: hZFP57zf3-4E273A (Homo sapiens, UniProt Q9NU63-3 227-287, C232F;E273A)
T1 sequence: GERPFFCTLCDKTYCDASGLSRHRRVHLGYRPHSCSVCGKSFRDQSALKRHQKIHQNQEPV

T2: hZFP57zf3-4 (C232F) (Homo sapiens, UniProt Q9NU63-3 227-287, C232F)
T2 sequence: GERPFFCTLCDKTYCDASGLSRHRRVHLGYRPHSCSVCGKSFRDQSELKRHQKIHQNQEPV

T3: hZFP57zf1-4 (Homo sapiens, UniProt Q9NU63-3 172-287)
T3 sequence: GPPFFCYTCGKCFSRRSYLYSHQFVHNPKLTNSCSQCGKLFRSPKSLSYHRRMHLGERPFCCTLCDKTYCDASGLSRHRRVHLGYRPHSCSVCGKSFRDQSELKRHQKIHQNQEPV


Key:
Assay in all cases: EMSA
hZFP57zf3-4E273A [1] = biological target: T1, hZFP57zf3-4E273A
hZFP57zf3-4 (C232F) = biological target: T2, hZFP57zf3-4 (C232F)
hZFP57zf1-4 = biological target: T3, hZFP57zf1-4
hZFP57zf3-4E273A [2] = biological target: T1, hZFP57zf3-4E273A; remark: listed apart in the source

Row | Binder | binding result (hZFP57zf3-4E273A [1]) | binding result (hZFP57zf3-4 (C232F)) | binding result (hZFP57zf1-4) | binding result (hZFP57zf3-4E273A [2])
1 | TGCmetCGC probe (both strands methylated) (dsDNA, 5-methylcytosine at C11 of strand 1 and C9 of strand 2) DNA 1: GTAATATTGCCGCAGTAATA DNA 2: TATTACTGCGGCAATATTAC | binds | binds | binds | 
2 | TGCCGC unmethylated probe (dsDNA) DNA 1: GTAATATTGCCGCAGTAATA DNA 2: TATTACTGCGGCAATATTAC |  |  |  | binds

From paper PMC3655262
